Our source for the Kd values is patent publication US20260167728A1 (published 2026).

The test deals with T1, huCD3e-mFc (human, UniProt P07766 23-126).
T1 construct: not shown: mFc, not described
Description: Pool 3 screen.

T1 sequence (P07766 23-126): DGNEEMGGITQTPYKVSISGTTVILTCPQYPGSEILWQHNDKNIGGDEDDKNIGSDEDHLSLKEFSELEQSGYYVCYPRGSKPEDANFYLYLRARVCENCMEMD

B1: AC3804 (CD3.300) (scFv, V domains shown)
VH: EVQLVESGGGIVQPGGSLRLSCAASGFTFSTYAMNWVRQAPGKGLEWVGRIRTKRNNYATYYADSVKGRFTISRDDSKNTVYLQMNSLKTEDTAVYYCVRHENFGNSYVSWFAHWGQGTLVTVSS
VL: ELVVTQEPSLTVSPGGTVTLTCRSSNGAVTSSNYANWVQQKPGQAPRGLIGGTNKRAPGTPARFSGSLLEGKAALTLSGVQPEDEAVYYCALWYPNLWVFGGGTKLTVL
notes: Pool 3 format (remarks)
A word on the Kd: it is the free concentration of one partner at which half of the binding sites on the other are occupied at equilibrium, for simple one-to-one binding. B1 showed a Kd of 36.6 nM.

B2: AC3814 (CD3.310) (scFv, V domains shown)
VH: EVQLVESGGGIVQPGGSLRLSCAASGFTFSTYAMNWVRQAPGKGLEWVGRIRTKRNDYATYYADSVKGRFTISRDDSKNTLYLQMNSLKTEDTAVYYCVRHENFGNSYVSWFAHWGQGTLVTVSS
VL: ELVVTQEPSLTVSPGGTVTLTCRSSNGAVTSSNYANWVQQKPGQAPRGLIGGTNKRAPGTPARFSGSLLGGKAALTLSGVQPEDEAVYYCALWYPNLWVFGGGTKLTVL
notes: Pool 3 format (remarks)
In the case of B2, binding was characterised by a dissociation constant (Kd) of 4.1 nM.

B3: AC3826 (CD3.322) (scFv, V domains shown)
VH: EVQLVESGGGIVQPGGSLRLSCAASGFTFNTYAMNWVRQAPGKGLEWVGRIRTKTNNYATYYADSVKGRFTISRDDSKNTVYLQMNSLKTEDTAVYYCVRHENFGNSYVSWFAHWGQGTLVTVSS
VL: ELVVTQEPSLTVSPGGTVTLTCRSSNGAVTSSNYANWVQQKPGQAPRGLIGGTNKRAPGTPARFSGSLNGGKAALTLSGVQPEDEAVYYCALWYPNLWVFGGGTKLTVL
notes: Pool 3 format (remarks)
B3: binding was put at a Kd of 7 nM.

B4: AC3806 (CD3.302) (scFv, V domains shown)
VH: EVQLVESGGGIVQPGGSLRLSCAASGFTFSTYAMNWVRQAPGKGLEWVGRIRTKRNDYATYYADSVKGRFTISRDDSKNTAYLQMNSLKTEDTAVYYCVRHENFGNSYVSWFAHWGQGTLVTVSS
VL: ELVVTQEPSLTVSPGGTVTLTCRSSNGAVTSSNYANWVQQKPGQAPRGLIGGTNKRAPGTPARFSGSALGGKAALTLSGVQPEDEAVYYCALWYPNLWVFGGGTKLTVL
notes: Pool 3 format (remarks)
For the molecule B4, the Kd was determined as 5.09 nM.

B5: AC3807 (CD3.303) (scFv, V domains shown)
VH: EVQLVESGGGIVQPGGSLRLSCAASGFTFSTYAMNWVRQAPGKGLEWVGRIRTKRNDYATYYADSVKGRFTISRDDSKNTAYLQMNSLKTEDTAVYYCVRHENFGNSYVSWFAHWGQGTLVTVSS
VL: ELVVTQEPSLTVSPGGTVTLTCRSSNGAVTSSNYANWVQQKPGQAPRGLIGGTNKRAPGTPARFSGSGLGGKAALTLSGVQPEDEAVYYCALWYPNLWVFGGGTKLTVL
notes: Pool 3 format (remarks)
B5 had a Kd of 6.08 nM.

B6: AC3819 (CD3.315) (scFv, V domains shown)
VH: EVQLVESGGGIVQPGGSLRLSCAASGFTFSTYAMNWVRQAPGKGLEWVGRIRTKRNDYATYYADSVKGRFTISRDDSKNTLYLQMNSLKTEDTAVYYCVRHENFGNSYVSWFAHWGQGTLVTVSS
VL: ELVVTQEPSLTVSPGGTVTLTCRSSNGAVTSSNYANWVQQKPGQAPRGLIGGTNKRAPGTPARFSGSLGGGKAALTLSGVQPEDEAVYYCALWYPNLWVFGGGTKLTVL
notes: Pool 3 format (remarks)
In turn, B6 came in with a Kd of 3.4 nM.

B7: AC3830 (CD3.326) (scFv, V domains shown)
VH: EVQLVESGGGIVQPGGSLRLSCAASGFTFNTYAMNWVRQAPGKGLEWVGRIRTKTNNYATYYADSVKGRFTISRDDSKNTVYLQMNSLKTEDTAVYYCVRHENFGNSYVSWFAHWGQGTLVTVSS
VL: ELVVTQEPSLTVSPGGTVTLTCRSSNGAVTSSNYANWVQQKPGQAPRGLIGGTNKRAPGTPARFSGSLLGGKAGLTLSGVQPEDEAVYYCALWYPNLWVFGGGTKLTVL
notes: Pool 3 format (remarks)
The molecule B7 came in with a Kd of 6.65 nM.

B8: AC3810 (CD3.306) (scFv, V domains shown)
VH: EVQLVESGGGIVQPGGSLRLSCAASGFTFSTYAMNWVRQAPGKGLEWVGRIRTKRNDYATYYADSVKGRFTISRDDSKNTAYLQMNSLKTEDTAVYYCVRHENFGNSYVSWFAHWGQGTLVTVSS
VL: ELVVTQEPSLTVSPGGTVTLTCRSSNGAVTSSNYANWVQQKPGQAPRGLIGGTNKRAPGTPARFSGSLGGGKAALTLSGVQPEDEAVYYCALWYPNLWVFGGGTKLTVL
notes: Pool 3 format (remarks)
For the molecule B8, the Kd amounted to 5.09 nM.

B9: AC3821 (CD3.317) (scFv, V domains shown)
VH: EVQLVESGGGIVQPGGSLRLSCAASGFTFSTYAMNWVRQAPGKGLEWVGRIRTKRNDYATYYADSVKGRFTISRDDSKNTLYLQMNSLKTEDTAVYYCVRHENFGNSYVSWFAHWGQGTLVTVSS
VL: ELVVTQEPSLTVSPGGTVTLTCRSSNGAVTSSNYANWVQQKPGQAPRGLIGGTNKRAPGTPARFSGSLLGGKAGLTLSGVQPEDEAVYYCALWYPNLWVFGGGTKLTVL
notes: Pool 3 format (remarks)
Molecule B9 registered a Kd of 4.1 nM.

B10: AC3825 (CD3.321) (scFv, V domains shown)
VH: EVQLVESGGGIVQPGGSLRLSCAASGFTFNTYAMNWVRQAPGKGLEWVGRIRTKTNNYATYYADSVKGRFTISRDDSKNTVYLQMNSLKTEDTAVYYCVRHENFGNSYVSWFAHWGQGTLVTVSS
VL: ELVVTQEPSLTVSPGGTVTLTCRSSNGAVTSSNYANWVQQKPGQAPRGLIGGTNKRAPGTPARFSGSGLGGKAALTLSGVQPEDEAVYYCALWYPNLWVFGGGTKLTVL
notes: Pool 3 format (remarks)
B10 gave a Kd of 10 nM.

B11: AC3828 (CD3.324) (scFv, V domains shown)
VH: EVQLVESGGGIVQPGGSLRLSCAASGFTFNTYAMNWVRQAPGKGLEWVGRIRTKTNNYATYYADSVKGRFTISRDDSKNTVYLQMNSLKTEDTAVYYCVRHENFGNSYVSWFAHWGQGTLVTVSS
VL: ELVVTQEPSLTVSPGGTVTLTCRSSNGAVTSSNYANWVQQKPGQAPRGLIGGTNKRAPGTPARFSGSLGGGKAALTLSGVQPEDEAVYYCALWYPNLWVFGGGTKLTVL
notes: Pool 3 format (remarks)
For the molecule B11, binding was characterised by a dissociation constant (Kd) of 7.21 nM.

B12: AC3816 (CD3.312) (scFv, V domains shown)
VH: EVQLVESGGGIVQPGGSLRLSCAASGFTFSTYAMNWVRQAPGKGLEWVGRIRTKRNDYATYYADSVKGRFTISRDDSKNTLYLQMNSLKTEDTAVYYCVRHENFGNSYVSWFAHWGQGTLVTVSS
VL: ELVVTQEPSLTVSPGGTVTLTCRSSNGAVTSSNYANWVQQKPGQAPRGLIGGTNKRAPGTPARFSGSGLGGKAALTLSGVQPEDEAVYYCALWYPNLWVFGGGTKLTVL
notes: Pool 3 format (remarks)
Regarding B12, the Kd worked out at 4.12 nM.

B13: AC3829 (CD3.325) (scFv, V domains shown)
VH: EVQLVESGGGIVQPGGSLRLSCAASGFTFNTYAMNWVRQAPGKGLEWVGRIRTKTNNYATYYADSVKGRFTISRDDSKNTVYLQMNSLKTEDTAVYYCVRHENFGNSYVSWFAHWGQGTLVTVSS
VL: ELVVTQEPSLTVSPGGTVTLTCRSSNGAVTSSNYANWVQQKPGQAPRGLIGGTNKRAPGTPARFSGSLDGGKAALTLSGVQPEDEAVYYCALWYPNLWVFGGGTKLTVL
notes: Pool 3 format (remarks)
Turning to B13, the affinity, expressed as Kd, was 10.1 nM.

B14: AC3817 (CD3.313) (scFv, V domains shown)
VH: EVQLVESGGGIVQPGGSLRLSCAASGFTFSTYAMNWVRQAPGKGLEWVGRIRTKRNDYATYYADSVKGRFTISRDDSKNTLYLQMNSLKTEDTAVYYCVRHENFGNSYVSWFAHWGQGTLVTVSS
VL: ELVVTQEPSLTVSPGGTVTLTCRSSNGAVTSSNYANWVQQKPGQAPRGLIGGTNKRAPGTPARFSGSLNGGKAALTLSGVQPEDEAVYYCALWYPNLWVFGGGTKLTVL
notes: Pool 3 format (remarks)
For the molecule B14, binding was characterised by a dissociation constant (Kd) of 3.86 nM.

B15: AC3815 (CD3.311) (scFv, V domains shown)
VH: EVQLVESGGGIVQPGGSLRLSCAASGFTFSTYAMNWVRQAPGKGLEWVGRIRTKRNDYATYYADSVKGRFTISRDDSKNTLYLQMNSLKTEDTAVYYCVRHENFGNSYVSWFAHWGQGTLVTVSS
VL: ELVVTQEPSLTVSPGGTVTLTCRSSNGAVTSSNYANWVQQKPGQAPRGLIGGTNKRAPGTPARFSGSALGGKAALTLSGVQPEDEAVYYCALWYPNLWVFGGGTKLTVL
notes: Pool 3 format (remarks)
For the molecule B15, the dissociation constant Kd amounted to 4.53 nM.

B16: AC3820 (CD3.316) (scFv, V domains shown)
VH: EVQLVESGGGIVQPGGSLRLSCAASGFTFSTYAMNWVRQAPGKGLEWVGRIRTKRNDYATYYADSVKGRFTISRDDSKNTLYLQMNSLKTEDTAVYYCVRHENFGNSYVSWFAHWGQGTLVTVSS
VL: ELVVTQEPSLTVSPGGTVTLTCRSSNGAVTSSNYANWVQQKPGQAPRGLIGGTNKRAPGTPARFSGSLDGGKAALTLSGVQPEDEAVYYCALWYPNLWVFGGGTKLTVL
notes: Pool 3 format (remarks)
Turning to B16, binding was put at a Kd of 3.99 nM.

B17: AC3834 (CD3.330) (scFv, V domains shown)
VH: EVQLVESGGGIVQPGGSLRLSCAASGFTFNTYAMNWVRQAPGKGLEWVGRIRTKTNDYATYYADSVKGRFTISRDDSKNTAYLQMNSLKTEDTAVYYCVRHENFGNSYVSWFAHWGQGTLVTVSS
VL: ELVVTQEPSLTVSPGGTVTLTCRSSNGAVTSSNYANWVQQKPGQAPRGLIGGTNKRAPGTPARFSGSGLGGKAALTLSGVQPEDEAVYYCALWYPNLWVFGGGTKLTVL
notes: Pool 3 format (remarks)
For the molecule B17, the Kd was determined as 23.4 nM.

B18: AC3812 (CD3.308) (scFv, V domains shown)
VH: EVQLVESGGGIVQPGGSLRLSCAASGFTFSTYAMNWVRQAPGKGLEWVGRIRTKRNDYATYYADSVKGRFTISRDDSKNTAYLQMNSLKTEDTAVYYCVRHENFGNSYVSWFAHWGQGTLVTVSS
VL: ELVVTQEPSLTVSPGGTVTLTCRSSNGAVTSSNYANWVQQKPGQAPRGLIGGTNKRAPGTPARFSGSLLGGKAGLTLSGVQPEDEAVYYCALWYPNLWVFGGGTKLTVL
notes: Pool 3 format (remarks)
As to B18, the Kd came to 5.56 nM.

B19: AC3824 (CD3.320) (scFv, V domains shown)
VH: EVQLVESGGGIVQPGGSLRLSCAASGFTFNTYAMNWVRQAPGKGLEWVGRIRTKTNNYATYYADSVKGRFTISRDDSKNTVYLQMNSLKTEDTAVYYCVRHENFGNSYVSWFAHWGQGTLVTVSS
VL: ELVVTQEPSLTVSPGGTVTLTCRSSNGAVTSSNYANWVQQKPGQAPRGLIGGTNKRAPGTPARFSGSALGGKAALTLSGVQPEDEAVYYCALWYPNLWVFGGGTKLTVL
notes: Pool 3 format (remarks)
As to B19, the Kd came to 10.9 nM.

B20: AC3818 (CD3.314) (scFv, V domains shown)
VH: EVQLVESGGGIVQPGGSLRLSCAASGFTFSTYAMNWVRQAPGKGLEWVGRIRTKRNDYATYYADSVKGRFTISRDDSKNTLYLQMNSLKTEDTAVYYCVRHENFGNSYVSWFAHWGQGTLVTVSS
VL: ELVVTQEPSLTVSPGGTVTLTCRSSNGAVTSSNYANWVQQKPGQAPRGLIGGTNKRAPGTPARFSGSLEGGKAALTLSGVQPEDEAVYYCALWYPNLWVFGGGTKLTVL
notes: Pool 3 format (remarks)
In turn, B20 returned a Kd of 4.02 nM.

B21: AC3808 (CD3.304) (scFv, V domains shown)
VH: EVQLVESGGGIVQPGGSLRLSCAASGFTFSTYAMNWVRQAPGKGLEWVGRIRTKRNDYATYYADSVKGRFTISRDDSKNTAYLQMNSLKTEDTAVYYCVRHENFGNSYVSWFAHWGQGTLVTVSS
VL: ELVVTQEPSLTVSPGGTVTLTCRSSNGAVTSSNYANWVQQKPGQAPRGLIGGTNKRAPGTPARFSGSLNGGKAALTLSGVQPEDEAVYYCALWYPNLWVFGGGTKLTVL
notes: Pool 3 format (remarks)
On to B21, for which the affinity, expressed as Kd, was 4.31 nM.
